# From patent publication US7109015B2, “Removal of N-terminal methionine from proteins by engineered methionine aminopeptidase” (Academia Sinica, priority 2004, dated 2006)
# Like-named read-outs stand apart in the source and are kept apart here.
# B1: MetAP-*TG (protein)
# chain: AISIKTPEDIEKMRVAGRLAAEVLEMIEPYVKPGVSTGELDRICNDYIVNEQHAVSACLGYHGYPKSVCISINEVVCHGIPDDAKLLKDGDIVNIDVTVIKDGFHGDTSKMFIVGKPTIMGERLCRITQESLYLALRMVKPGINLREIGAAIQKFVEAEGFSVVREYCGHGIGRGFHEEPQVLHYDSRETNVVLKPGMTFTIEPTVNAGKKEIRTMKDGWTVKTKDRSLSAGYEHTIVVTDNGCEILTLRKDDTIPAIISHDE
# How the values were obtained:
# [1] = target: CA150, a transcription elongation regulator 1 (Escherichia coli, UniProt P0AE18, M206T/Q233G); conditions: substrate MLAGA (SEQ ID NO:20)-CA150; solubility +
# From the text: (§1) The rpr (AF332139) gene encoding for the target protein, onconase, from Rana pipiens was tagged with NdeI and BamHI site at the 5′ and 3′ end, respectively, and inserted downstream of T7 promoter in the expression vector pET22b (Novagen) (Liao et al., 2003; Huang et al., 1998; Liao et al., 2000). The other target proteins were also cloned by the same method, including RC-RNase L1 (AF288642.2), RC-RNase 2 (AF242553), RC-RNase 3 (AF242554), RC-RNase 4 (AF242555), RC-RNase6 (AF242556) from Rana catesbeiana, CA150 (a transcription elongation regulator 1; NM_006706) and glutathione S-transferase (M14654).
# (§2) The Escherichia coli methionine aminopeptidase gene (Accession Number M 15106) or its mutant was fused with the T7 promoter by three steps of PCR and inserted into the same pET22b vector containing a target protein, as described above, through SacI and HindIII. […] The second PCR was performed using the PCR product from step 1 as 5′ megaprimer, oligonucleotide 3 (5′[…]3′; SEQ ID NO:4) as 3′ primer, and the E. coli MetAP gene (M15101) as template (Huang et al., 1998; Ben-Bassat et al., 1987). The third PCR was to amplify the second PCR product using oligonucleotide 1 and oligonucleotide 3 as primers. The genes encoding the target protein and E. coli MetAP have their own T7 RNA polymerase promoter, but they may be transcribed into the same RNA molecule for cotranslation because only one transcription terminator exists, downstream of the MetAP gene. Alternatively, the MetAP gene alone may be directly subcloned into vector pET29b through the SacI and HindIII site.
# (§3) The MetAP was expressed alone or co-expressed with a target protein, i.e., onconase and RC-RNaseL1, in E. coli BL21 (DE3) in the presence of 0.5 mM IPTG at 37° C.
# (§4) Proteins in the cell pellet or in the soluble fraction were separated by 13.3% SDS-PAGE and contact-transferred to ProBlott™ membrane (Applied Bioystems) in transfer buffer (10 mM Tris-HCl, pH 7.5, 50 mM NaCl, 2 mM EDTA, 0.5 mM 2-mercaptoethanol) overnight. The five N-terminal residues of the transferred protein were determined by Edman degradation. The percentage of Met removal was calculated by dividing the amount of proteins initiated with the penultimate residue with the amount of total proteins (including proteins initiated with the penultimate residue and unprocessed protein initiated with Met) after the first degradation cycle. In theory, this percentage should remain the same after each degradation cycle. Therefore, in order to avoid experimental variation, the same calculation was made from five consecutive degradation cycles, e.g., M, Q, N, W and L for onconase. The efficiency of Met removal is reported as the mean values of at least three cycles. The mass spectrum analysis was carried out as described previously (Liao et al., 2003).
# RC-RNase2 = RC-RNase2 (Escherichia coli, UniProt P0AE18, M206T/Q233G); conditions: substrate MQNEW (SEQ ID NO:17)-RC2; solubility −
# From the text: as §1, §2, §3, §4
# RC-RNase3 = RC-RNase3 (Escherichia coli, UniProt P0AE18, M206T/Q233G); conditions: substrate MQDWE (SEQ ID NO:11)-RC3; solubility −
# From the text: as §1, §2, §3, §4
# RC-RNase6 = RC-RNase6 (Escherichia coli, UniProt P0AE18, M206T/Q233G); conditions: substrate MQDWD (SEQ ID NO:12)-RC6; solubility −
# From the text: as §1, §2, §3, §4
# RC-RNaseL1 = RC-RNaseL1 (Escherichia coli, UniProt P0AE18, M206T/Q233G); conditions: solubility −
# From the text: as §1, §2, §3, §4
# [2] = target: glutathione S-transferase (GST) (Escherichia coli, UniProt P0AE18, M206T/Q233G); conditions: substrate MQDIL (SEQ ID NO:21)-GST
# From the text: as §1, §2, §3, §4
# synthetic oligopeptides = assay type: biochemical; conditions: for Specific activity (unit/mg): 4 mM oligopeptide, pH 7.5, 37° C.
# [3] = substrate MQNWA (SEQ ID NO:18)-RCL1
molecule,measurement,setting,value
B1,Catalytic activity (%): percent of penultimate residue removed,[1],71%
same,Catalytic activity (%): removal of N-terminal Met,[1],100%
same,Catalytic activity (%): percent of penultimate residue removed,RC-RNase2,56%
same,Catalytic activity (%): removal of N-terminal Met,RC-RNase2,80%
same,Catalytic activity (%): removal of N-terminal Met,RC-RNase3,96%
same,Catalytic activity (%): removal of N-terminal Met,RC-RNase6,82%
same,Catalytic activity (%): removal of N-terminal Met,RC-RNaseL1; substrate MQDWA (SEQ ID NO:19)-RCL1,99%
same,Catalytic activity (%): percent of penultimate residue removed,RC-RNaseL1; [3],62%
same,Catalytic activity (%): removal of N-terminal Met,RC-RNaseL1; [3],96%
same,Catalytic activity (%): removal of N-terminal Met,"[2]; solubility +, same vector",87%
same,Catalytic activity (%): removal of N-terminal Met,"[2]; solubility +, target in pET22b co-transformed with MetAP in pET29b",71%
same,Catalytic activity (%): removal of N-terminal Met,"[2]; solubility −, same vector",85%
same,Catalytic activity (%): removal of N-terminal Met,"[2]; solubility −, target in pET22b co-transformed with MetAP in pET29b",70%
same,In vitro catalytic activity,synthetic oligopeptides; oligopeptides ranging from tetra- to dodecapeptides with Ala at the penultimate site,high catalytic activity
same,Specific activity (unit/mg),synthetic oligopeptides; substrate MADY (SEQ ID NO:7),72 ± 10 unit/mg
same,Specific activity (unit/mg),synthetic oligopeptides; substrate MADYLT (SEQ ID NO:8),116 ± 4 unit/mg
same,Specific activity (unit/mg),synthetic oligopeptides; substrate MQDYLT (SEQ ID NO:9),0.42 ± 0.02 unit/mg
same,Specific activity (unit/mg),synthetic oligopeptides; substrate […] (SEQ ID NO:5),73 ± 15 unit/mg
same,Specific activity (unit/mg),synthetic oligopeptides; substrate […] (SEQ ID NO:6),0.59 ± 0.07 unit/mg
